Consider 2 sequences from publication PMC4258057.

The target in data set [1] is T1, BldD (Saccharopolyspora erythraea A226?) (UniProt A4FBF9).
T1 sequence: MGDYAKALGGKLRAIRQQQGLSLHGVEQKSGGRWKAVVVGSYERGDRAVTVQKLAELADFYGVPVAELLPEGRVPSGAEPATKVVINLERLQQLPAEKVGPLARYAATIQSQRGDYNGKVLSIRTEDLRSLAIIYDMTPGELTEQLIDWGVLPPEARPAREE
Nature of the data set: EMSA. As to conditions: 10 mM Tris pH 7.5, 5 mM MgCl2, 50 mM EDTA (so in the source), 60 mM KCl, 10 mM DTT, 10% glycerol, 150 ng probe (legend: 10 ng), 0.5-4 uM protein; on ice 10 min; 8% …. In general terms: A gel shift assay detects complexes by their altered migration in electrophoresis.

Data set [2] addresses T2, SACE_7301 (Saccharopolyspora erythraea A226?) (UniProt A4FQY4).
T2 sequence: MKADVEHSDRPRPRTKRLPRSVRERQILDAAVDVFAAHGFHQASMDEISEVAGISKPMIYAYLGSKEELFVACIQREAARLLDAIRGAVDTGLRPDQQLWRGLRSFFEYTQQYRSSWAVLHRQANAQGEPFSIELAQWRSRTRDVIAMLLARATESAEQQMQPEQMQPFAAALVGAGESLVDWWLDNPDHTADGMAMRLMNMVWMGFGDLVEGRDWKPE
Nature of the data set: EMSA. The settings on record: 10 mM Tris pH 7.5, 5 mM MgCl2, 50 mM EDTA (so in the source), 60 mM KCl, 10 mM DTT, 10% glycerol, 150 ng probe (legend: 10 ng), 0.5-4 uM protein; on ice 10 min; 8% ….

On to “GCGAGTGTCCGTTCGAGTGGCGGCTTGCGCCCGATGCTAGTCGCGGTTGATCGGCGATCGCAGGTGCACGCGGTCGATCTTGACGGCTGGCGAGAGGTGCGGGGAGGATCTGACCGACGCGGTCCACACGTGGCACCGCGATGCTGTTGTGGGCTGGACAATCGTGCCGGTTGGTAGGATCCAGCG (double strand) [PermE promoter fragment]”, for which the binding entry in data set [1] and in data set [2] was “binds” each time.
Take “GCGTCCCCCTACTCGACGACCACGCAATGGGCGAACAATATAGGAAGGATCAAGAGGTTGACATCGCCTCGTCGAGCCAACGAACCTGTGAACATCTGCATGTTGACAAGATCAACGGCGGCTACCTACTGTGGTGGCCCAGTGACGGGTTGCCGCACATCGCGCTGGGGAGATTCTTTGAATTTCGCCCGTAGCACCGACCTGGAAAGCGAGCAAATGCTCCG (double strand) [PeryAI promoter fragment]”: the binding entry in data set [1] and in data set [2] was “binds” in each case.
